# IntAct's records for PubMed 31515488
# B1: Ubiquitin-like protein 4B (Homo sapiens), Q8N7F7 (parent)
# chain: MFLTVKLLLGQRCSLKVSGQESVATLKRLVSRRLKVPEEQQHLLFRGQLLEDDKHLSDYCIGPNASINVIMQPLEKMALKEAHQPQTQPLWHQLGLVLAKHFEPQDAKAVLQLLRQEHEERLQKISLEHLEQLAQYLLAEEPHVEPAGERELEAKARPQSSCDMEEKEEAAADQ
# partner: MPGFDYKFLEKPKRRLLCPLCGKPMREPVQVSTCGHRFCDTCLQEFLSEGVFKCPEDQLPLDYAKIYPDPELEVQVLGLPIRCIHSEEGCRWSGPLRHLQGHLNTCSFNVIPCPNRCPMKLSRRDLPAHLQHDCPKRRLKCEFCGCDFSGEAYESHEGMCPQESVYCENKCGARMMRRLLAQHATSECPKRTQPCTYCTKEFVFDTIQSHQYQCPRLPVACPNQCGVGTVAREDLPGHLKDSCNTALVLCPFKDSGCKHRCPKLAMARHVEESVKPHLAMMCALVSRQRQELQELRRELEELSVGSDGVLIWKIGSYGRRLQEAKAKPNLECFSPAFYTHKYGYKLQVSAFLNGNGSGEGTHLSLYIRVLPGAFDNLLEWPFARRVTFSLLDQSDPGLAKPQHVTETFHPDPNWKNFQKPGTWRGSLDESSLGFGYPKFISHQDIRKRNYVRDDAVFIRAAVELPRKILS
# B2: Zinc finger protein RFP (Homo sapiens), P14373 (parent)
# chain: MASGSVAECLQQETTCPVCLQYFAEPMMLDCGHNICCACLARCWGTAETNVSCPQCRETFPQRHMRPNRHLANVTQLVKQLRTERPSGPGGEMGVCEKHREPLKLYCEEDQMPICVVCDRSREHRGHSVLPLEEAVEGFKEQIQNQLDHLKRVKDLKKRRRAQGEQARAELLSLTQMEREKIVWEFEQLYHSLKEHEYRLLARLEELDLAIYNSINGAITQFSCNISHLSSLIAQLEEKQQQPTRELLQDIGDTLSRAERIRIPEPWITPPDLQEKIHIFAQKCLFLTESLKQFTEKMQSDMEKIQELREAQLYSVDVTLDPDTAYPSLILSDNLRQVRYSYLQQDLPDNPERFNLFPCVLGSPCFIAGRHYWEVEVGDKAKWTIGVCEDSVCRKGGVTSAPQNGFWAVSLWYGKEYWALTSPMTALPLRTPLQRVGIFLDYDAGEVSFYNVTERCHTFTFSHATFCGPVRPYFSLSYSGGKSAAPLIICPMSGIDGFSGHVGNHGHSMETSP
# partner: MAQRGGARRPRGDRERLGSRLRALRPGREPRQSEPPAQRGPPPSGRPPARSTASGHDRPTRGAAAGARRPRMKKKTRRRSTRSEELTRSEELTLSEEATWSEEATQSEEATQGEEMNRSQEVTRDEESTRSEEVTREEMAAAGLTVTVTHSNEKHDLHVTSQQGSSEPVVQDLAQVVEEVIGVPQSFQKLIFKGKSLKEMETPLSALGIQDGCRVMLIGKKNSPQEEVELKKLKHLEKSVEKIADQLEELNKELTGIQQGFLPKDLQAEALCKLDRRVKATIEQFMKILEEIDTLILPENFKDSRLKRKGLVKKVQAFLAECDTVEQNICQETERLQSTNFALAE
# B3: Mothers against decapentaplegic homolog 4 (Homo sapiens), Q13485 (parent)
# chain: MDNMSITNTPTSNDACLSIVHSLMCHRQGGESETFAKRAIESLVKKLKEKKDELDSLITAITTNGAHPSKCVTIQRTLDGRLQVAGRKGFPHVIYARLWRWPDLHKNELKHVKYCQYAFDLKCDSVCVNPYHYERVVSPGIDLSGLTLQSNAPSSMMVKDEYVHDFEGQPSLSTEGHSIQTIQHPPSNRASTETYSTPALLAPSESNATSTANFPNIPVASTSQPASILGGSHSEGLLQIASGPQPGQQQNGFTGQPATYHHNSTTTWTGSRTAPYTPNLPHHQNGHLQHHPPMPPHPGHYWPVHNELAFQPPISNHPAPEYWCSIAYFEMDVQVGETFKVPSSCPIVTVDGYVDPSGGDRFCLGQLSNVHRTEAIERARLHIGKGVQLECKGEGDVWVRCLSDHAVFVQSYYLDREAGRAPGDAVHKIYPSAYIKVFDLRQCHRQMQQQAATAQAAAAAQAAAVAGNIPGPGSVGGIAPAISLSAAAGIGVDDLRRLCILRMSFVKGWGPDYPRQSIKETPCWIEIHLHRALQLLDEVLHTMPIADPQPLD
# Variants of: B1
# Settings: with traf4_human TRAF4, Q9BUZ4
row,effect of a mutation on the interaction,Variant
1,disrupting interaction strength,R121H

# Variants of: B2
# Settings: with bag1_human BAG1, Q99933
row,effect of a mutation on the interaction,Variant
1,with no effect,N355S

# Variants of: B3
# Settings: with smad9_human SMAD9, O15198
# Chain of smad9_human SMAD9, O15198 (O15198 whole entry): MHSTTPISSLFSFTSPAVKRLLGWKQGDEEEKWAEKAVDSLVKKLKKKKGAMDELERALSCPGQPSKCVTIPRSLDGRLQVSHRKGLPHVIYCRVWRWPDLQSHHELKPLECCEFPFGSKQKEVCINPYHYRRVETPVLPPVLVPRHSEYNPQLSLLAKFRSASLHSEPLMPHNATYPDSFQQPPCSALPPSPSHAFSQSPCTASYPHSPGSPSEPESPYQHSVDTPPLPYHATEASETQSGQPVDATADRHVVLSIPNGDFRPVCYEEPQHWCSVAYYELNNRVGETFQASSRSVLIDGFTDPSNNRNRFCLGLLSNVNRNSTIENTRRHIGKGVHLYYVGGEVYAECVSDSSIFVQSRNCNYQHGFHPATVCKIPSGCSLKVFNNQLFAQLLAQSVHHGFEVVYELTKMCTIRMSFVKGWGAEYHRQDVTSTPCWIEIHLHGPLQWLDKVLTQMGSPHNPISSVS
row,effect of a mutation on the interaction,Variant
1,disrupting interaction strength,Y353S

# Variants of: B3
# Settings: with smad3_human SMAD3, P84022
# Chain of smad3_human SMAD3, P84022 (P84022 whole entry, looked up): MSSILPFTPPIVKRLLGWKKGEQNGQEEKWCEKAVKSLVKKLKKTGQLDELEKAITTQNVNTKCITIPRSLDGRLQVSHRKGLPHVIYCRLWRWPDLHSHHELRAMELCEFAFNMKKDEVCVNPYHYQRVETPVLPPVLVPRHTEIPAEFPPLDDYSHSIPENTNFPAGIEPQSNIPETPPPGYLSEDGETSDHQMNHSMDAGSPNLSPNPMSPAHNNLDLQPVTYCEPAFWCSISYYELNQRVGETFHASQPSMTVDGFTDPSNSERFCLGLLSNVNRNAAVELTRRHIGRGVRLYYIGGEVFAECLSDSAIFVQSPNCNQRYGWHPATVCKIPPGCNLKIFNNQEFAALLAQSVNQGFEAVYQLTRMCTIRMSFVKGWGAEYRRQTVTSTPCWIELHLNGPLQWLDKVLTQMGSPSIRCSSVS
row,effect of a mutation on the interaction,Variant
1,disrupting interaction strength,Y353S
2,disrupting interaction strength,L533F

# Variants of: B3
# Settings: with ews_human EWSR1, Q01844
# Chain of ews_human EWSR1, Q01844 (Q01844 whole entry): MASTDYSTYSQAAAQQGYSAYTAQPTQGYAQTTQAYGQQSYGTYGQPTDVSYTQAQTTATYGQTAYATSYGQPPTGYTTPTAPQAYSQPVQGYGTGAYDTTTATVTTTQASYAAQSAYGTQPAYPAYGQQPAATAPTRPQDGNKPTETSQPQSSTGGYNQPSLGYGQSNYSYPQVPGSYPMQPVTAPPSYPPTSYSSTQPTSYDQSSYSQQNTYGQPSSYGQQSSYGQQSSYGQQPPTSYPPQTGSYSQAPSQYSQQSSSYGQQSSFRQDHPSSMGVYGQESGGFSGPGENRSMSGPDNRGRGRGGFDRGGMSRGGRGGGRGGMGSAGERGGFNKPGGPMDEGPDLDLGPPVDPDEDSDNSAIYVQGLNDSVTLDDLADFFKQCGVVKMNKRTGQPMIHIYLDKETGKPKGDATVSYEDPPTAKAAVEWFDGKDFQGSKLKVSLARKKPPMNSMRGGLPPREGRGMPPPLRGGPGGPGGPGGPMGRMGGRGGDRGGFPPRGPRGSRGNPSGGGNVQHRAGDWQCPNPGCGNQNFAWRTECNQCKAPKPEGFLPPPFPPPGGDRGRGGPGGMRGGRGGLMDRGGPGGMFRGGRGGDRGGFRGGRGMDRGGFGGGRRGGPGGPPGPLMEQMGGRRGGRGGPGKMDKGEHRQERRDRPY
row,effect of a mutation on the interaction,Variant
1,with no effect,L533F
